Consider 3 molecules from US20120058906A1 (published 2012).

Assay [1] has as its target T1, rHuman ErbB2/Fc Chimera, CF (R&D Systems Cat#1129-ER) (human, UniProt P04626 23-652).
T1 construct: Purchased Fc chimera; also called HER2/neu; not shown: Fc portion of the purchased chimera
The assay is described as follows: MSD ECL multi-spot plate, antigen immobilized; Fab 1000 nM; blank spot 630.

For assay [2], the target named is T2, rHuman IGF-1 sR (IGF-1 sR), CF (R&D Systems Cat#391-GR) (human, UniProt P08069 31-932).
T2 construct: Purchased soluble receptor; also called insulin-like growth factor-1 soluble receptor; IGF-R1
The description is as above.

In assay [3] the target is T3, rHuman EGF R/Fc Chimera, CF (R&D Systems Cat#344-ER) (human, UniProt P00533 25-645).
T3 construct: Purchased Fc chimera; not shown: Fc portion of the purchased chimera
Described as above.

The target in assay [4] is T4, Recombinant Human DLL4 (R&D Systems Cat#1506-D4/CF) (human, UniProt Q9NR61 27-524).
T4 construct: Purchased recombinant protein; also called delta-like protein 4
Described as above.

The target of assay [5] is T5, rHuman HGF R/c-MET/Fc Chimera, CF (R&D Systems Cat#358-MT/CF) (human, UniProt P08581 25-932).
T5 construct: Purchased Fc chimera; also called HGF R/Fc; not shown: Fc portion of the purchased chimera
Described as above.

Assay [6] has as its target T6, rHuman P-Cadherin/Fc Chimera, CF (R&D Systems Cat#861-PC) (human, UniProt P22223 108-654).
T6 construct: Purchased Fc chimera; not shown: Fc portion of the purchased chimera
The description is as above.

Assay [7] deals with T7, rHuman CD44/Fc Chimera, CF (R&D Systems Cat#3660-CD) (human, UniProt P16070 21-220).
T7 construct: Purchased Fc chimera; not shown: Fc portion of the purchased chimera
Described as above.

Assay [8] concerns the target T8, rHuman Erythropoietin R/Fc Chimera, CF (R&D Systems Cat#963-ER) (human, UniProt P19235 25-250).
T8 construct: Purchased Fc chimera; also called EPO R/Fc; Epo R; not shown: Fc portion of the purchased chimera
T8 sequence: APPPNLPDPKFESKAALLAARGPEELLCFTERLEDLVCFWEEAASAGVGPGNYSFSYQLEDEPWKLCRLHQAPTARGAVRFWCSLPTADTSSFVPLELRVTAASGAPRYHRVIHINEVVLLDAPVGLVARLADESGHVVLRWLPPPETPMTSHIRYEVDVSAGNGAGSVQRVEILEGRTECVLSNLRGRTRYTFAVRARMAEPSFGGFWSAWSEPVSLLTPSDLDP
Described as above.

In assay [9] the target is T1, rHuman ErbB2/Fc Chimera, CF (R&D …). The experiment in a line: MSD ECL multi-spot plate, antigen immobilized; Fab 0.32 nM; blank spot 513.
The target of assay [10] is T3, rHuman EGF R/Fc Chimera, CF (R&D …). The description is as above.
Assay [11] addresses T4, Recombinant Human DLL4 (R&D Systems …). The assay is described as above.
For assay [12], the target named is T9, rHuman Notch-1/Fc Chimera, CF (R&D Systems Cat#3647-TK) (human, UniProt P46531 19-526).
T9 construct: Purchased Fc chimera; not shown: Fc portion of the purchased chimera
The assay is described as above.

The target of assay [13] is T5, rHuman HGF R/c-MET/Fc Chimera, CF (R&D …). Described as above.
Assay [14] concerns the target T8, rHuman Erythropoietin R/Fc Chimera, CF …. The assay is described as above.
The target in assay [15] is T10, rHuman CD44/Fc Chimera, CF (R&D Systems Cat#3660-CD) (human, UniProt P16070 21-220).
T10 construct: Bought Fc chimera; Fc part of the bought chimera not given
The experiment in a line: ECL (MSD Multi-Spot) binding assay, antigen spotted on plate; Fab 60 nM; blank spot 237.

For assay [16], the target named is T11, rHuman Notch-1/Fc Chimera, CF (R&D Systems Cat#3647-TK) (human, UniProt P46531 19-526).
T11 construct: Bought Fc chimera; Fc part of the bought chimera not given
The description is as above.

The target of assay [17] is T12, rHuman Erythropoietin R/Fc Chimera, CF (R&D Systems Cat#963-ER) (human, UniProt P19235 25-250).
T12 construct: Bought Fc chimera; also called EPO R/Fc; Epo R; Fc part of the bought chimera not given
T12 sequence: T8 sequence
The description is as above.

Assay [18] addresses T13, rHuman P-Cadherin/Fc Chimera, CF (R&D Systems Cat#861-PC) (human, UniProt P22223 108-654).
T13 construct: Bought Fc chimera; also called CDH3; Fc part of the bought chimera not given
The description is as above.

The target of assay [19] is T14, Recombinant Human DLL4 (R&D Systems Cat#1506-D4/CF) (human, UniProt Q9NR61 27-524).
T14 construct: Bought recombinant protein; also called delta-like protein 4; rHuman DLL4
The description is as above.

Where a chain is given by its changes, count along the chain named.
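Further: blank spot per well as comparator with Hit at signal to blank ratio of 4 or more.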

B1: Fab VH5-51_IGHD5-18*01>3_IGHJ4*01_G100K & V3-4_IGLJ1*01 (Fab, V domains shown)
VH: EVQLVQSGAEVKKPGESLKISCKGSGYSFTSYWIGWVRQMPGKGLEWMGIIYPGDSDTRYSPSFQGQVTISADKSISTAYLQWSSLKASDTAMYYCARRKYSYGYDYFDYWGQGTLVTVSS
VL: QTVVTQEPSFSVSPGGTVTLTCGLSSGSVSTSYYPSWYQQTPGQAPRTLIYSTNTRSSGVPDRFSGSILGNKAALTITGAQADDESDYYCVLYMGSGISYVFGTGTKVTVL
notes: It was expressed as a Fab: CH1 with tags from Plasmid A and lambda CL from Plasmid E; also called Fab No. 22
On to B1, for which the ECL signal in assay [1] was determined as 1250 ECL signal; in assay [2], 1130 ECL signal; in assay [3] it was 1030 ECL signal; in assay [4] it was 29600 ECL signal; in [5], 1200 ECL signal; in assay [6] it was 1040 ECL signal. Besides, the values for the ECL signal in [7] and in assay [8] were 1020 ECL signal and 1120 ECL signal, respectively.

B2: Fab VH5-51_IGHD5-18*01>3_IGHJ4*01_G100R & V3-4_IGLJ1*01 (Fab, V domains shown)
VH: B1 VH with K100R
VL: B1 VL
notes: It was expressed as a Fab: CH1 with tags from Plasmid A and lambda CL from Plasmid E; also called Fab No. 23
With B2, the ECL signal stood at 1480 ECL signal in [9]; 1220 ECL signal in assay [10]; 1210 ECL signal in assay [11]; 983 ECL signal in assay [12]; 1290 ECL signal in assay [13]; 851 ECL signal in [14].

B3: Fab VH6-1_IGHD3-3*01_IGHJ4*01 & V4-3_IGLJ4*01 (Fab, V domains shown)
VH: QVQLQQSGPGLVKPSQTLSLTCAISGDSVSSNSAAWNWIRQSPSRGLEWLGRTYYRSKWYNDYAVSVKSRITINPDTSKNQFSLQLNSVTPEDTAVYYCAREYYDFWSGYYTDYFDYWGQGTLVTVSS
VL: QPVLTQPTSLSASPGASARLTCTLRSGINLGSYRIFWYQQKPESPPRYLLSYYSDSSKHQGSGVPSRFSGSKDASSNAGILVISGLQSEDEADYYCMIWHSSASFVFGGGTQLIIL
notes: Tested as a Fab made in E. coli; also called IGHV6-1*01
With B3, the ECL signal in [15] came out at 434; in [16], 415; in [17] it was 423; in assay [18], 372; in assay [19], 875.
